B1: 3C-3S variant of the FHA1 domain, GST fusion (other)
chain: MENITQPTQQSTQATQRFLIEKFSQEQIGENIVSRVISTTGQIPIRDLSADISQVLKEKRSIKKVWTFGRNPACDYHLGNISRLSNKHFQILLGEDGNLLLNDISTNGTWLNGQKVEKNSNQLLSQGDEITVGVGVESDILSLVIFINDKFKQSLEQNKVDRIRSNLKNT
notes: Cell lysate used in the ELISA; not shown: The N-terminal GST of the pGEX-2T vector and the vector junction residues
B2: D2 FHA1 variant with W at position 34, phage-displayed (designed binder)
chain: B1 chain with S34W
notes: Made from D2 by Kunkel mutagenesis at position 34; also called S34W; not shown: N-terminal Flag peptide, cloning-site residues and M13 protein III (display carrier)
B3: 4C-4S variant of the FHA1 domain, GST fusion (other)
chain: B1 chain with C74S
notes: as for B1
B4: D2 variant of the FHA1 domain, phage-displayed (protein III fusion) (designed binder, not shown: small tags and cut ends)
chain: B1 chain with S34F
notes: Selected from a mutagenic library built on the 3C-3S template; one added mutation S34F; also called position 34 F variant
B5: BRCT-pS (peptide)
peptide: Biotin-SGSAYDI[pS]QVFPFAKKK-NH2
SMILES: CC[C@H](C)[C@H](NC(=O)[C@H](CC(=O)O)NC(=O)[C@H](Cc1ccc(O)cc1)NC(=O)[C@H](C)NC(=O)[C@H](CO)NC(=O)CNC(=O)[C@H](CO)NC(=O)CCCC[C@@H]1SC[C@@H]2NC(=O)N[C@@H]21)C(=O)N[C@@H](COP(=O)(O)O)C(=O)N[C@@H](CCC(N)=O)C(=O)N[C@H](C(=O)N[C@@H](Cc1ccccc1)C(=O)N1CCC[C@H]1C(=O)N[C@@H](Cc1ccccc1)C(=O)N[C@@H](C)C(=O)N[C@@H](CCCCN)C(=O)N[C@@H](CCCCN)C(=O)N[C@@H](CCCCN)C(N)=O)C(C)C
notes: also called Biotin-BRCT-pS
B6: Rad9-pY (peptide)
peptide: Biotin-SGSSLEV[pY]EADATFYAKK-NH2
SMILES: CC(C)C[C@H](NC(=O)[C@H](CO)NC(=O)[C@H](CO)NC(=O)CNC(=O)[C@H](CO)NC(=O)CCCC[C@@H]1SC[C@@H]2NC(=O)N[C@@H]21)C(=O)N[C@@H](CCC(=O)O)C(=O)N[C@H](C(=O)N[C@@H](Cc1ccc(OP(=O)(O)O)cc1)C(=O)N[C@@H](CCC(=O)O)C(=O)N[C@@H](C)C(=O)N[C@@H](CC(=O)O)C(=O)N[C@@H](C)C(=O)N[C@H](C(=O)N[C@@H](Cc1ccccc1)C(=O)N[C@@H](Cc1ccc(O)cc1)C(=O)N[C@@H](C)C(=O)N[C@@H](CCCCN)C(=O)N[C@@H](CCCCN)C(N)=O)[C@@H](C)O)C(C)C
B7: Rad9-pS (peptide)
peptide: Biotin-SGSSLEV[pS]EADATFYAKK-NH2
SMILES: CC(C)C[C@H](NC(=O)[C@H](CO)NC(=O)[C@H](CO)NC(=O)CNC(=O)[C@H](CO)NC(=O)CCCC[C@@H]1SC[C@@H]2NC(=O)N[C@@H]21)C(=O)N[C@@H](CCC(=O)O)C(=O)N[C@H](C(=O)N[C@@H](COP(=O)(O)O)C(=O)N[C@@H](CCC(=O)O)C(=O)N[C@@H](C)C(=O)N[C@@H](CC(=O)O)C(=O)N[C@@H](C)C(=O)N[C@H](C(=O)N[C@@H](Cc1ccccc1)C(=O)N[C@@H](Cc1ccc(O)cc1)C(=O)N[C@@H](C)C(=O)N[C@@H](CCCCN)C(=O)N[C@@H](CCCCN)C(N)=O)[C@@H](C)O)C(C)C
B8: D2 variant of the FHA1 domain, GST fusion (designed binder)
chain: B1 chain with S34F
notes: as for B1

Substitutions are numbered along the chain they refer to. Names may count otherwise. Square brackets hold non-standard residues; d marks the D form. * marks the point of attachment. Biotin = O=C1N[C@H]2[C@H](CS[C@H]2CCCCC(=O)*)N1; pY = N[C@@H](Cc1ccc(OP(=O)(O)O)cc1)C(=O)O; pT = C[C@@H](OP(=O)(O)O)[C@H](N)C(=O)O; pS = N[C@@H](COP(=O)(O)O)C(=O)O

The target of assay [1] is Rad9 pT peptide used for ITC (SLEVp…) (yeast). Kind of assay: ITC.
The target in assay [2] is Rad9-pT peptide with SGS linker (SGS-SLEVp…) (yeast). Kind of assay: FTS assay, 1 µM protein, 50 µM pT peptide.
For assay [3] the target is unchanged. Kind of assay: FTS assay, 4 µM protein, 50 µM pT peptide.
For assay [4] the target is unchanged. The experiment in a line: FTS assay, 1 µM protein, 250 µM pT peptide.
For assay [5] the target is unchanged. The experiment in a line: FTS assay, 4 µM protein, 250 µM pT peptide.
Assay [6] deals with Rad9 pT peptide used for ITC (SLEVp…) (yeast). The experiment in a line: ITC, pT peptide injected into 35 µM FHA1 domain, three repeats.
Assay [7] deals with B5. Kind of assay: ELISA with GST fusion (cell lysate); biotinylated peptide on Neutravidin; anti-GST-HRP, A405 [b].
Assay [8] deals with T1, Rad9-pT peptide with SGS linker (SGS-SLEVpTEADATFYAKK) (yeast, SMILES …).
T1 construct: also called cognate pT peptide; Rad-pT
T1 peptide: Biotin-SGSSLEV[pT]EADATFYAKK-NH2
The experiment in a line: phage ELISA, normalised to Flag. The text has this: Through Kunkel mutagenesis (Yaffe (2002) Nat Rev Mol Cell Bol 3, 177-86), the amino acid residue at position 34 in the β1 strand of the D2 FHA 1 domain was replaced (from the naturally-occurring V) one at a time with each of the other naturally occurring amino acids and binding to the immobilized Rad9-pT peptide was monitored by phage ELISA. Phage binding was detected using anti-M13 antibody conjugated to Horse Radish Peroxidase (HRP). […] All the variants display an N-terminal Flag peptide and the amount of phage particles used for each variant in this experiment has been normalized for this epitope.
To amplify the phage particles displaying the recombinant FHA1 variants, TG1 bacterial cells (5 mL; Stratagene) harboring the phagemid DNA were infected at mid-log (OD₆₀₀ₙₘ=0.5-0.6) with M13K07 helper phage (New England Biolabs) at a multiplicity of infection (MOI) of 20 for 1 h at 37° C. at 150 rpm. Infected cells were centrifuged, and the pellet was resuspended in fresh Luria Bertani medium (LB: 10 g Tryptone, 5 g Yeast extract, and 10 g NaCl per liter) supplemented with 50 μg/mL carbenicillin and 50 μg/ml kanamycin, and phage were amplified overnight at 30° C. at 250 rpm. All of the phage ELISA steps were performed at room temperature. […]

In assay [9] the target is B5. The experiment in a line: phage ELISA; biotinylated peptide on Neutravidin, A405. The method, then: FIG. 9A is a photograph of 96-well plates containing phage supernatants from 96 individual clones, which were isolated after three rounds of selection, heated (50° C.), cooled, and added to microtiter plate wells coated with the phosphopeptide ligand. Binding of phage particles in the wells was monitored with an anti-M13 antibody conjugated to HRP. FIG. 9B is a graph showing the ratio of the ELISA signals for individual phage clones generated with wells contained with the target protein compared to a negative control protein (background).
Phage particles produced from 96 clones isolated after round #3, were heated at 50° C. for 3 hr and cooled to RT. The phage supernatants were then incubated with both the target peptide (500 ng/well) immobilized on NeutrAvidin (1 μg/well) coated plate wells and an unrelated target (background). Binding phage clones were detected using anti-M13 antibody conjugated to HRP (GE Healthcare). The green, colored product of the enzymatic reaction in the microtiter plate wells was measured at 405 nm using the FLUOstar OPTIMA plate reader (BMG Labtech). […] In some cases, the signal over background ratio ranged from 3 to 20 for clones (FIG. 9B).

Assay [10] deals with B7. Kind of assay: phage ELISA; biotinylated peptide on Neutravidin; anti-M13-HRP, A405 [a]. The source says:
(§1) Binding of phage particles was detected using anti-M13 antibody conjugated to HRP. FIG. 4(b) is a graph of the results of ELISA experiments of GST fusions of the WT FHA1 domain and three of its variants, 3C-3S, 4C-4S, and D2, that bound specifically to the cognate pT peptide (Rad9-pT; shown as solid histograms) immobilized on plastic microtiter plate wells via Neutravidin. Binding was detected using anti-GST antibody conjugated to HRP. The peptide sequences for Rad9-pT, Rad9-T, Rad9-pS, Rad9-pY, Plk1-pT and BRCT-pS are SGSSLEVp[…] (SEQ ID NO: 1), […] (SEQ ID NO: 2), SGSSLEVp[…] (SEQ ID NO: 3), SGSSLEVp[…] (SEQ ID NO: 4), […]p[…] (SEQ ID NO: 5) and SGSAYDIp[…] (SEQ ID NO: 6), respectively. The peptide sequence for the WT FHA1 domain from S. cerevisiae Rad53 protein kinase includes […] (SEQ ID NO:7), which includes residues 1-170 of S. cerevisiae Rad53 (SEQ ID NO:8) (Liao et al. (2000) J. Mol. Biol 304, 941-51; Durocher et al. (1999) Mol Cell 4). […] The β-strands are labeled from 1 to 11 in the WT FHA1 domain structure and the N- and C-termini are noted.

For assay [11], the target named is B6. The assay is described as above.
Excerpt: as §1

For assay [12], the target named is T2, Plk1-pT (SMILES …).
T2 peptide: Biotin-SGSAGPMQS[pT]PLNGAKK-NH2
The description is as above.
Excerpt: as §1

For assay [13], the target named is T3, WT FHA1 domain of S. cerevisiae Rad53, phage-displayed (protein III fusion on bacteriophage M13) (Saccharomyces cerevisiae; bacteriophage …, UniProt P22216 1-170).
T3 construct: not shown: minor coat protein III (pIII, gene III product) of bacteriophage M13
T3 sequence: B1 chain with S34C, S38C, S154C
The description is as above.
Excerpt: as §1

The target in assay [14] is T4, WT FHA1 domain, GST fusion (Saccharomyces cerevisiae, UniProt P22216 1-170).
T4 construct: Expressed in the bacterial cytoplasm; cell lysate used in the ELISA; The order GST then FHA1 follows the pGEX-2T vector; also called GST fusion of the WT FHA1 domain; FHA1-GST fusion protein; not shown: Glutathione S-transferase (GST) of the pGEX-2T vector (GE Healthcare)
T4 sequence: B1 chain with S34C, S38C, S154C
Kind of assay: ELISA with GST fusion (cell lysate); biotinylated peptide on Neutravidin; anti-GST-HRP, A405 [b].

In turn, “WT FHA1 domain, purified with C-terminal six-histidine tag (from UniProt P22216 1-170)” displayed a stoichiometry in [1] of 1. The Tm shift in the presence of pT peptide in assay [2] is 1.7 ° C; in assay [3], 1.95 ° C; in assay [4], 3.8 ° C; in assay [5], 3.55 ° C. The dissociation constant Kd in [6] was found to be 1000 nM.
Consider B1, for which the binding result in assay [7] is on record as “no binding”.
B2: the binding result in assay [8] is given as “no binding”.
With B3, the binding result in assay [7] was “no binding”.
Consider B4, for which the binding result in assay [9], in [10], in assay [11] and in assay [12] was “no binding” in each case.
As to B5, the binding result in assay [13] and in [14] was “no binding” each time.
For the molecule B6, the binding result in assay [13] is on record as “no binding”.
For B7, the binding result in [13] was “no binding”.
Turning to B8, the binding result in assay [7] is recorded as “no binding”.
